Assay results from patent US20190092846A1 (Novartis, published 2019).
Where a chain is given by its changes, count along the chain named. Values belong to the binder of their own block, whether it stands above or below them.

How the values were obtained:
human recombinant TGF-β2 [1] = biological target: T1, human recombinant TGF-β2 (human, UniProt P09858 303-414 (pig entry)); test: cell-based or functional assay
T1 sequence: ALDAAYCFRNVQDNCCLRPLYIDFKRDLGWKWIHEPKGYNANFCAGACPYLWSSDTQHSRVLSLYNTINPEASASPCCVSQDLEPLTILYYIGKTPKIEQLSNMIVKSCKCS

mouse recombinant TGF-β2 [2] = biological target: T2, mouse recombinant TGF-β2 (mouse, UniProt P27090 303-414); test: cell-based or functional assay
T2 sequence (looked up): T1 sequence with S59T, R60K, K94N

human TGF-β3 [3] = biological target: T3, human TGF-β3 (human, UniProt P10600 301-412); test: cell-based or functional assay
T3 sequence: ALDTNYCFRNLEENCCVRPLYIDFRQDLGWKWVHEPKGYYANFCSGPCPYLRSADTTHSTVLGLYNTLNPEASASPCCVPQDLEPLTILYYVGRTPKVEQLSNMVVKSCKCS

human TGF-β1 [4] = biological target: T4, human TGF-β1 (human, UniProt P01137 279-390); test: cell-based or functional assay
mouse recombinant TGF-β2 [5] = biological target: T2, mouse recombinant TGF-β2; test: BiaCORE (surface plasmon resonance)
human TGF-β3 [6] = biological target: T3, human TGF-β3; test: BiaCORE (surface plasmon resonance)
human TGF-β1 [7] = biological target: T4, human TGF-β1; test: not named in the sentence (it points to Table 4)
human recombinant TGF-β2 [8] = biological target: T1, human recombinant TGF-β2; test: ratio of the KD values of Table 4
human recombinant TGF-β2 [9] = biological target: T1, human recombinant TGF-β2; test: BiaCORE (surface plasmon resonance)
human recombinant TGF-β2 [10] = biological target: T1, human recombinant TGF-β2; test: ratio with the conservative KD of 100 fM
human recombinant TGF-β2 [11] = biological target: T1, human recombinant TGF-β2; test: conservative reading of the KD value of Table 4
[12] = biological target: T5, human TGFβ-2 (residues 303-414, SEQ ID NO: 122) (human, UniProt P61812 303-414); test: X-ray crystal structure of the complex
T5 construct: Construct of the crystal structure with the MOR14797 Fab; also called TGFβ-2 dimer (chains A and B)
T5 sequence: T1 sequence
Experimental: As detailed below, the individual components of the complex were produced using separate expression systems and were combined to generate the purified complex. X-ray crystallography was then employed to generate diffraction data for TGFβ-2 bound to the MOR14797 Fab, elucidating the antigen-binding site.
The TGFβ-2-MOR14797 complex was concentrated to 20 mg/ml, followed by centrifugation at 20,000×g for 10 min prior to dispensing crystallization screens. Crystals were grown at 20° C. using a sitting drop vapor diffusion setup. 0.1 μl of the TGFβ-2-MOR14797 complex was mixed with 0.1 μl of a reservoir solution containing 0.1 M HEPES (pH 7.5) and 70% (v/v) MPD, and the drop was equilibrated against 45 μl of the reservoir solution. Crystals were flash-cooled directly in liquid nitrogen and were sent to the Advanced Photon Source (Argonne National Laboratory, USA) for collection of diffraction data at beamline 17-ID. Datasets were processed using autoPROC (version 1.1.6, Global Phasing Ltd.) to a resolution of 2.4 Å in space group P2₁2₁2₁ with cell dimensions a=77.2 Å, b=122.1 Å, c=130.1 Å, α=90°, β=90°, and γ=90°. […] The Rwork and Rfree values are 17.5% and 23.0%, respectively. The RMSD values for the bond lengths and angles were 0.008 Å and 1.054°.

human TGF-β1 [13] = biological target: T4, human TGF-β1; test: cell-based or functional assay; remark: listed apart in the source
human recombinant TGF-β2 [14] = biological target: T1, human recombinant TGF-β2; test: conservative reading of the KD value of Table 4; conservative interpretation of the Table 4 KD, not a new measurement

T4 sequence (P01137 279-390 limits assumed): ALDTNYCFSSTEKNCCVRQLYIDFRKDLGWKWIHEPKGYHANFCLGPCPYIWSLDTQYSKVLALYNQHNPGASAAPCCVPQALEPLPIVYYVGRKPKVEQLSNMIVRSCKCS

CK (IC 50 [pM]), Skeletal Muscle Cell Differentiation Assay (Creatine Kinase) (human recombinant TGF-β2 [1]): 366 pM | RGA (CAGA-12 luc/Smad-2/3 RGA; IC 50 [pM]) (human recombinant TGF-β2 [1]): 2.8 pM | CK (IC 50 [pM]), Skeletal Muscle Cell Differentiation Assay (Creatine Kinase) (mouse recombinant TGF-β2 [2]): 3000 pM | RGA (CAGA-12 luc/Smad-2/3 RGA; IC 50 [pM]) (mouse recombinant TGF-β2 [2]): > 100000 pM | RGA (CAGA-12 luc/Smad-2/3 RGA; IC 50 [pM]) (human TGF-β3 [3]): > 100000 pM | RGA (CAGA-12 luc/Smad-2/3 RGA; IC 50 [pM]) (human TGF-β1 [4]): > 100000 pM | Kd (mouse recombinant TGF-β2 [5]): 1.89 pM | Kd (human TGF-β3 [6]): > 1000 nM | binding result (human TGF-β1 [7]): no binding
B1: MOR14787 (antibody, human IgG1, kappa, V domains shown)
VH: QVQLVQSGAEVKKPGSSVKVSCKASGGTFSSYAISWVRQAPGQGLEWMGVIVPKWGHPQYAQKFQGRVTITADESTSTAYMELSSLRSEDTAVYYCAREGDFVVLVLTEHYMGGFDVWGQGTLVTVSS
VL: DIQMTQSPSSLSASVGDRVTITCRASQSIDEYLNWYQQKPGKAPKLLIYAGSNLQSGVPSRFSGSGSGTDFTLTISSLQPEDFATYYCLQGYSYPRTFGQGTKVEIKR

CK (IC 50 [pM]), Skeletal Muscle Cell Differentiation Assay (Creatine Kinase) (human recombinant TGF-β2 [1]): 105 pM | RGA (CAGA-12 luc/Smad-2/3 RGA; IC 50 [pM]) (human recombinant TGF-β2 [1]): 8.4 pM | CK (IC 50 [pM]), Skeletal Muscle Cell Differentiation Assay (Creatine Kinase) (mouse recombinant TGF-β2 [2]): 1500 pM | RGA (CAGA-12 luc/Smad-2/3 RGA; IC 50 [pM]) (mouse recombinant TGF-β2 [2]): 329 pM | RGA (CAGA-12 luc/Smad-2/3 RGA; IC 50 [pM]) (human TGF-β3 [3]): > 100000 pM | RGA (CAGA-12 luc/Smad-2/3 RGA; IC 50 [pM]) (human TGF-β1 [4]): > 100000 pM | fold lower KD for TGFbeta-2 than for TGFbeta-3 (human recombinant TGF-β2 [8]): 6e+06 fold | Kd (human recombinant TGF-β2 [9]): 0.00446 pM | Kd (mouse recombinant TGF-β2 [5]): 0.633 pM | Kd (human TGF-β3 [6]): 27.4 nM | fold lower KD for TGFβ2 than for TGFbeta-3 (human recombinant TGF-β2 [10]): 270000 fold | Kd (human recombinant TGF-β2 [11]): ≤ 0.0001 nM | binding result (human TGF-β1 [7]): no binding
B2: MOR14797 (antibody, human IgG1, kappa, V domains shown)
VH: QVTLRESGPALVKPTQTLTLTCTFSGFSLSTSGMGVGWIRQPPGKALEWLAHIYWNDDKSYSTSLKTRLTISKDTSKNQVVLTMTNMDPVDTATYYCARDFYYSGYFDSWGQGTLVTVSS
VL: DIQMTQSPSSLSASVGDRVTITCRASQDISNYLNWYQQKPGKAPKLLIFGASSLQSGVPSRFSGSGSGTDFTLTISSLQPEDFATYYCQQTNTMNTFGQGTKVEIKR
notes: (no LALA)

binding result [12]: binds
B3: MOR14797 Fab (Fab, V domains shown)
VH: B2 VH
VL: B2 VL
notes: also called Fab fragment of MOR14797

RGA (CAGA-12 luc/Smad-2/3 RGA; IC 50 [pM]) (human recombinant TGF-β2 [1]): 4370 pM | RGA (CAGA-12 luc/Smad-2/3 RGA; IC 50 [pM]) (human TGF-β3 [3]): 32 pM | RGA (CAGA-12 luc/Smad-2/3 RGA; IC 50 [pM]) (human TGF-β1 [4]): 108 pM | fold lower KD for TGFβ2 than for TGFbeta 3 (human recombinant TGF-β2 [8]): 17 fold | IC50 (read off the curve) (CAGA-12 luciferase reporter gene assay, HEK293T/17) (human TGF-β1 [13]): ~0.5 nM | Kd (human recombinant TGF-β2 [9]): 117 pM | Kd (human TGF-β3 [6]): 0.02 nM
B4: 1D11 (antibody, V domains shown)
VH: QVQLQQSGPELVRPGASVKLSCKASGYIFITYWMNWVKQRPGQGLEWIGQIFPASGSTNYNEMFEGKATLTVDTSSSTAYMQLSSLTSEDSAVYYCARGDGNYALDAMDYWGQGTSVTVSS
VL: DIVLTQSPASLAVSLGQRATISCRASESVDSYGNSFMHWYQQKSGQPPKLLIYLASNLESGVPARFSGSGSRTDFTLTIDPVEADDAATYYCQQNNEDPLTFGAGTKLEIK

CK (IC 50 [pM]), Skeletal Muscle Cell Differentiation Assay (Creatine Kinase) (human recombinant TGF-β2 [1]): 220 pM | RGA (CAGA-12 luc/Smad-2/3 RGA; IC 50 [pM]) (human recombinant TGF-β2 [1]): 94 pM | CK (IC 50 [pM]), Skeletal Muscle Cell Differentiation Assay (Creatine Kinase) (mouse recombinant TGF-β2 [2]): 800 pM | RGA (CAGA-12 luc/Smad-2/3 RGA; IC 50 [pM]) (mouse recombinant TGF-β2 [2]): 598 pM | RGA (CAGA-12 luc/Smad-2/3 RGA; IC 50 [pM]) (human TGF-β3 [3]): > 100000 pM | RGA (CAGA-12 luc/Smad-2/3 RGA; IC 50 [pM]) (human TGF-β1 [4]): > 100000 pM | Kd (human recombinant TGF-β2 [9]): 0.0524 pM | Kd (mouse recombinant TGF-β2 [5]): 0.00236 pM | Kd (human TGF-β3 [6]): > 1000 nM | Kd (human recombinant TGF-β2 [11]): ≤ 0.0001 nM | binding result (human TGF-β1 [7]): no binding
B5: MOR14809 (antibody, human IgG1, lambda, V domains shown)
VH: QVQLVQSGAEVKKPGESLKISCKGSGYSFTRYWIAWVRQMPGKGLEWMGIIDPGTSDTRYSPSFQGQVTISADKSISTAYLQWSSLKASDTAMYYCARIDKSLILHSAFDYWGQGTLVTVSS
VL: SYELTQPLSVSVALGQTARITCSGDNLGGYYAYWYQQKPGQAPVLVIYETNNRPSGIPERFSGSNSGNTATLTISRAQAGDEADYYCASTTQDYLVFVFGGGTKLTVLG

CK (IC 50 [pM]), Skeletal Muscle Cell Differentiation Assay (Creatine Kinase) (human recombinant TGF-β2 [1]): 1050 pM | RGA (CAGA-12 luc/Smad-2/3 RGA; IC 50 [pM]) (human recombinant TGF-β2 [1]): 78 pM | CK (IC 50 [pM]), Skeletal Muscle Cell Differentiation Assay (Creatine Kinase) (mouse recombinant TGF-β2 [2]): 909 pM | RGA (CAGA-12 luc/Smad-2/3 RGA; IC 50 [pM]) (mouse recombinant TGF-β2 [2]): 138 pM | RGA (CAGA-12 luc/Smad-2/3 RGA; IC 50 [pM]) (human TGF-β3 [3]): > 100000 pM | RGA (CAGA-12 luc/Smad-2/3 RGA; IC 50 [pM]) (human TGF-β1 [4]): > 100000 pM | fold lower KD for TGFβ2 than for TGFbeta 3 (human recombinant TGF-β2 [8]): > 18000 fold | Kd (human recombinant TGF-β2 [9]): 0.00108 pM | Kd (mouse recombinant TGF-β2 [5]): 0.00277 pM | Kd (human TGF-β3 [6]): 0.0199 nM | fold lower KD for TGFβ2 than for TGFbeta 3 (human recombinant TGF-β2 [10]): 200 fold | binding result (human TGF-β1 [7]): no binding | Kd (human recombinant TGF-β2 [14]): ≤ 0.0001 nM
B6: MOR14799 (antibody, human IgG1, lambda, V domains shown)
VH: QVQLVQSGAEVKKPGESLKISCKGSGYSFTRYYVAWVRQMPGKGLEWMGWIDPGQSNTRYSPSFQGQVTISADKSISTAYLQWSSLKASDTAMYYCARMLAWGWFDYWGQGTLVTVSS
VL: SYELTQPLSVSVALGQTARITCSGDNLGGYYAHWYQQKPGQAPVLVIYDKSDRPSGIPERFSGSNSGNTATLTISRAQAGDEADYYCASYDSSLMMVFGGGTKLTVLG

CK (IC 50 [pM]), Skeletal Muscle Cell Differentiation Assay (Creatine Kinase) (human recombinant TGF-β2 [1]): 491 pM | RGA (CAGA-12 luc/Smad-2/3 RGA; IC 50 [pM]) (human recombinant TGF-β2 [1]): 29 pM | CK (IC 50 [pM]), Skeletal Muscle Cell Differentiation Assay (Creatine Kinase) (mouse recombinant TGF-β2 [2]): 1200 pM | RGA (CAGA-12 luc/Smad-2/3 RGA; IC 50 [pM]) (mouse recombinant TGF-β2 [2]): 123 pM | RGA (CAGA-12 luc/Smad-2/3 RGA; IC 50 [pM]) (human TGF-β3 [3]): > 100000 pM | RGA (CAGA-12 luc/Smad-2/3 RGA; IC 50 [pM]) (human TGF-β1 [4]): > 100000 pM | Kd (mouse recombinant TGF-β2 [5]): 0.00109 pM | Kd (human TGF-β3 [6]): > 1000 nM | Kd (human recombinant TGF-β2 [11]): ≤ 0.0001 nM | binding result (human TGF-β1 [7]): no binding
B7: MOR14800 (antibody, human IgG1, lambda, V domains shown)
VH: B6 VH
VL: B6 VL with K50T

CK (IC 50 [pM]), Skeletal Muscle Cell Differentiation Assay (Creatine Kinase) (human recombinant TGF-β2 [1]): 315 pM | RGA (CAGA-12 luc/Smad-2/3 RGA; IC 50 [pM]) (human recombinant TGF-β2 [1]): 106 pM | CK (IC 50 [pM]), Skeletal Muscle Cell Differentiation Assay (Creatine Kinase) (mouse recombinant TGF-β2 [2]): 629 pM | RGA (CAGA-12 luc/Smad-2/3 RGA; IC 50 [pM]) (mouse recombinant TGF-β2 [2]): 248 pM | RGA (CAGA-12 luc/Smad-2/3 RGA; IC 50 [pM]) (human TGF-β3 [3]): > 100000 pM | RGA (CAGA-12 luc/Smad-2/3 RGA; IC 50 [pM]) (human TGF-β1 [4]): > 100000 pM | fold lower KD for TGFbeta-2 than for TGFbeta-3 (human recombinant TGF-β2 [8]): 73 fold | Kd (human recombinant TGF-β2 [9]): 0.97 pM | Kd (human TGF-β3 [6]): 0.0705 nM | binding result (human TGF-β1 [7]): no binding
B8: MOR14805 (antibody, human IgG1, lambda, V domains shown)
VH: B6 VH with Q55T
VL: B6 VL
